This note sets out measurements from PMC10613257 (2023).

The target of the test is insulin-like growth factor binding protein 5 (IGFBP5), full length, wild type (UniProt P24593 21-272, labelled with FAM-maleimide, 6-isomer after reduction with TCEP (in the fluorescence polarisation assay)). The experiment in a line: FP.
Sequence of insulin-like growth factor binding protein 5 (IGFBP5), full length, wild type (P24593 21-272): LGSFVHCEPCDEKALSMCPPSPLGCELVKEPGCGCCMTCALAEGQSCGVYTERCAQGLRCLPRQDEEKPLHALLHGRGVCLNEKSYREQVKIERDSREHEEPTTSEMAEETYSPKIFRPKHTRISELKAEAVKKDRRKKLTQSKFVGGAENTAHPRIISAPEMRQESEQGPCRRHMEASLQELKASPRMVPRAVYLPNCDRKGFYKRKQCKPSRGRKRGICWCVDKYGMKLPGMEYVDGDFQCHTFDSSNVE

B1: PAPP-A E483A (catalytically inactive) (enzyme)
chain: REARGATEEPSPPSRALYFSGRGEQLRLRADLELPRDAFTLQVWLRAEGGQRSPAVITGLYDKCSYISRDRGWVVGIHTISDQDNKDPRYFFSLKTDRARQVTTINAHRSYLPGQWVYLAATYDGQFMKLYVNGAQVATSGEQVGGIFSPLTQKCKVLMLGGSALNHNYRGYIEHFSLWKVARTQREILSDMETHGAHTALPQLLLQENWDNVKHAWSPMKDGSSPKVEFSNAHGFLLDTSLEPPLCGQTLCDNTEVIASYNQLSSFRQPKVVRYRVVNLYEDDHKNPTVTREQVDFQHHQLAEAFKQYNISWELDVLEVSNSSLRRRLILANCDISKIGDENCDPECNHTLTGHDGGDCRHLRHPAFVKKQHNGVCDMDCNYERFNFDGGECCDPEITNVTQTCFDPDSPHRAYLDVNELKNILKLDGSTHLNIFFAKSSEEELAGVATWPWDKEALMHLGGIVLNPSFYGMPGHTHTMIHAIGHSLGLYHVFRGISEIQSCSDPCMETEPSFETGDLCNDTNPAPKHKSCGDPGPGNDTCGFHSFFNTPYNNFMSYADDDCTDSFTPNQVARMHCYLDLVYQGWQPSRKPAPVALAPQVLGHTTDSVTLEWFPPIDGHFFERELGSACHLCLEGRILVQYASNASSPMPCSPSGHWSPREAEGHPDVEQPCKSSVRTWSPNSAVNPHTVPPACPEPQGCYLELEFLYPLVPESLTIWVTFVSTDWDSSGAVNDIKLLAVSGKNISLGPQNVFCDVPLTIRLWDVGEEVYGIQIYTLDEHLEIDAAMLTSTADTPLCLQCKPLKYKVVRDPPLQMDVASILHLNRKFVDMDLNLGSVYQYWVITISGTEESEPSPAVTYIHGSGYCGDGIIQKDQGEQCDDMNKINGDGCSLFCRQEVSFNCIDEPSRCYFHDGDGVCEEFEQKTSIKDCGVYTPQGFLDQWASNASVSHQDQQCPGWVIIGQPAASQVCRTKVIDLSEGISQHAWYPCTISYPYSQLAQTTFWLRAYFSQPMVAAAVIVHLVTDGTYYGDQKQETISVQLLDTKDQSHDLGLHVLSCRNNPLIIPVVHDLSQPFYHSQAVRVSFSSPLVAISGVALRSFDNFDPVTLSSCQRGETYSPAEQSCVHFACEKTDCPELAVENASLNCSSSDRYHGAQCTVSCRTGYVLQIRRDDELIKSQTGPSVTVTCTEGKWNKQVACEPVDCSIPDHHQVYAASFSCPEGTTFGSQCSFQCRHPAQLKGNNSLLTCMEDGLWSFPEALCELMCLAPPPVPNADLQTARCRENKHKVGSFCKYKCKPGYHVPGSSRKSKKRAFKTQCTQDGSWQEGACVPVTCDPPPPKFHGLYQCTNGFQFNSECRIKCEDSDASQGLGSNVIHCRKDGTWNGSFHVCQEMQGQCSVPNELNSNLKLQCPDGYAIGSECATSCLDHNSESIILPMNVTVRDIPHWLNPTRVERVVCTAGLKWYPHPALIHCVKGCEPFMGDNYCDAINNRAFCNYDGGDCCTSTVKTKKVTPFPMSCDLQGDCACRDPQAQEHSRKDLRGYSHG
For orientation: Kd means the constant that tells how readily two partners part at equilibrium. Read a low Kd as tighter binding. In turn, B1 had a dissociation constant Kd of 237 nM.
